Test results from patent publication US20210380673A1.
Values belong to the substance of their own block, whether it stands above or below them.

Tests used:
Test in all cases: cell-based or functional assay
[1] = molecular target: recombinant mouse CCL20 (mouse) (UniProt O89093)
[2] = molecular target: recombinant human CCL20 (human) (UniProt P78556)
[3] = molecular target: human CCR6 (human) (UniProt P51684)
Sequence of UniProt P51684 (P51684 whole entry): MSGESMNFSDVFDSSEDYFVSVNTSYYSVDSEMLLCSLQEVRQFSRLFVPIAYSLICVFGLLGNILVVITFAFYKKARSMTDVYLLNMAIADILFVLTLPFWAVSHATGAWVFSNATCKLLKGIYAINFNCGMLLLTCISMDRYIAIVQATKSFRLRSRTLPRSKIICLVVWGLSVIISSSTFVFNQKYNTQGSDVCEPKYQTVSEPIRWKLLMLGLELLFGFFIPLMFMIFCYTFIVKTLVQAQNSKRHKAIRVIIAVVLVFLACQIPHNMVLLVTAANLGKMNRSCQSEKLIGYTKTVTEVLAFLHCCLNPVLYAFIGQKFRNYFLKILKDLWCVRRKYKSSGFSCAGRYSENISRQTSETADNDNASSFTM

Sequence of UniProt P78556 (P78556 27-96 limits assumed): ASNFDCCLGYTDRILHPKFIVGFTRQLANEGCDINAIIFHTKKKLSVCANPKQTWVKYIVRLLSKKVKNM
Sequence of UniProt O89093 (O89093 28-97 limits assumed): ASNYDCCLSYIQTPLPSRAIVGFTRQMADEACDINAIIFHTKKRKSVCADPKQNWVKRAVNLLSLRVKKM

- IC50, beta-arrestin translocation assay (CHO-K1 cells overexpressing mouse CCR6, stimulated with 1.2 nM mouse CCL20) [1]: 14 nM
Substance: anti-mouse CCL20 monoclonal antibody (clone 114908; R&D Systems)

- IC50, beta-arrestin translocation assay (CHO-K1 cells overexpressing human CCR6, stimulated with 6 nM CCL20) [2]: 2.7 nM
- IC50, cAMP assay (Ad293 cells overexpressing human CCR6, stimulated with 1 nM CCL20) [2]: 0.8 nM
Substance: neutralizing monoclonal antibody against human CCL20 (clone 67310; R&D Systems)

- expression of NANOG, BMI1, OCT3/4 and SOX2 in CCR6+ against CCR6- NCIH508 cells after 48 hours with 100 pg/mL CCL20 [3]: 2 fold
Substance: recombinant human CCL20 (from UniProt P78556 27-96) (ligand)
